Reference: patent US20140308283A1 (TORAY INDUSTRIES, published 2014)

T1: CAPRIN-1 protein expressed on the cell membrane surface of human cancer cell lines (human, UniProt Q14444 2-709)
T1 construct: whole, on cells; also called human CAPRIN-1; Cytoplasmic- and proliferation-associated protein 1
T1 sequence (looked up): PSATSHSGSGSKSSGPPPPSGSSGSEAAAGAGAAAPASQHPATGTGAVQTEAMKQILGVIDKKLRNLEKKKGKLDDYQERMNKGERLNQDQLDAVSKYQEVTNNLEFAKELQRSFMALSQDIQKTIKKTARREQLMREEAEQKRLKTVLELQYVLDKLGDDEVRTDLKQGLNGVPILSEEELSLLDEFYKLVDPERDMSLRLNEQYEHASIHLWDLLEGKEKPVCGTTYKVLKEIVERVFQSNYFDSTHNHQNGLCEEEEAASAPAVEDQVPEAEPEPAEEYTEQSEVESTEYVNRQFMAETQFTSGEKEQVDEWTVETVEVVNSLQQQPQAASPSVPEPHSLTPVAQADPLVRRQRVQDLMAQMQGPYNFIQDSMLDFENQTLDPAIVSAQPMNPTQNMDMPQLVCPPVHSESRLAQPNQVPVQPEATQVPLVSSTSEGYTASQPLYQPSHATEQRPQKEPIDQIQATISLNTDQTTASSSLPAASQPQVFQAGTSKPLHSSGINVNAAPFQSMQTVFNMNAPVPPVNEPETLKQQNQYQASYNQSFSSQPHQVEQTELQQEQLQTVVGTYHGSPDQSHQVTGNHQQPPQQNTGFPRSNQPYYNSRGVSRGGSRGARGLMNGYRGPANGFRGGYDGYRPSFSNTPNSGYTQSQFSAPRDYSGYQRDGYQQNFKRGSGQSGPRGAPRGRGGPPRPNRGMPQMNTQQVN


Columns and labels:
[1] = molecular target: T1, CAPRIN-1 protein expressed on the cell …; experiment: flow cytometry on Capan-2, MIAPaCa-2, PANC-1 and BxPC-3 cells, vs isotype control
Procedure: Next, four pancreatic cancer cell lines (Capan-2, MIAPaCa-2, PANC-1, and BxPC-3) confirmed to have CAPRIN-1 gene expression were examined for their expression of CAPRIN-1 protein on the cell surface. 10⁶ cells of each cell line were centrifuged in each 1.5-ml microcentrifuge tube. The cancer cell surface-reactive anti-CAPRIN-1 mouse monoclonal antibodies #1 to #22 prepared in Example 4 and the culture supernatant (100 μl) containing the anti-CAPRIN-1 mouse-chicken chimeric antibody #1, #2, or #3 prepared in the preceding paragraph (2) were separately added to the tubes and left standing for 1 hour on ice. After washing with PBS, the cells were suspended in FITC-labeled goat anti-mouse IgG antibodies (manufactured by Invitrogen Corp.) diluted 500-fold with PBS containing 0.1% FBS and left standing for 1 hour on ice. After washing with PBS, the fluorescence intensity was measured using FACSCalibur (Becton, Dickinson and Company). On the other hand, the same operation as above was performed using isotype control antibodies, instead of the anti-CAPRIN-1 mouse monoclonal antibodies #1 to #22 and the culture supernatant containing the mouse-chicken chimeric antibody #1, #2, or #3, to prepare a control. As a result, all the cells supplemented with any of the monoclonal antibodies #1 to #22 and the mouse-chicken chimeric antibodies #1, #2, and #3 had fluorescence intensity at least 20% stronger than that of the control. […] The above rate of enhancement in fluorescence intensity was indicated by the rate of increase in mean fluorescence intensity (MFI) in each cell line and calculated according to the following expression: […]

[2] = molecular target: T1, CAPRIN-1 protein expressed on the cell …; experiment: cell-based or functional assay

Binder | rate of increase in mean fluorescence intensity [1] [%] | cytotoxic activity (ADCC) against MIAPaCa-2 and Capan-2 [2] [%]
mouse monoclonal antibody #12 (antibody, V domains shown, Mouse hybridoma antibody; also called anti-CAPRIN-1 mouse monoclonal antibody #12) VH: EVQLHQFGAELVKPGASVKISCKASGYTFTDYNMDWVKQSHGKSLEWIGDINPNYDSTSYNQKFKGKATLTVDKSSSTAYMELRSLTSEDTAVYYCARSRSYDYEGFAYWGQGTLVTVSA VL: DIQMTQSPASLSASVGETVTITCRASGNIHNYLAWYQQKQGKSPQLLVYNAKTLADGVPSRFSGSGSGTQYSLKINSLQPEDFGSYYCQHFWSTLTFGAGTKLELKR | ≥ 20 | ≥ 10
mouse monoclonal antibody #15 (antibody, V domains shown, Mouse hybridoma antibody; also called anti-CAPRIN-1 mouse monoclonal antibody #15) VH: EVQLHQFGAELVKPGASVKISCKASGYTFTDYNMDWVKQSHGKSLEWIGDINPNYDSTSYNQKFKGKATLTVDKSSSTAYMELRSLTSEDTAVYYCARSRSYDYEGFAYWGQGTLVTVSA VL: SGDRVSLSCRASQSISNYLHWYQQKSHESPRLLIKYASQSISGIPSRFSGSGSGTDFTLSINSVETEDFGMYFCQQSNSWPYTFGAGTKLEIKQ | ≥ 20 | ≥ 10
mouse monoclonal antibody #14 (antibody, V domains shown, Mouse hybridoma antibody; also called anti-CAPRIN-1 mouse monoclonal antibody #14) VH: EVQLHQFGAELVKPGASVKISCKASGYTFTDYNMDWVKQSHGKSLEWIGDINPNYDSTSYNQKFKGKATLTVDKSSSTAYMELRSLTSEDTAVYYCARSRSYDYEGFAYWGQGTLVTVSA VL: DIQLTQSPASLSASVGETVTITCRASGNIHNYLAWYQQKQGKSPQLLVYNAKTLADGVPSRFSGSGSGTQYSLKINSLQPEDFGSYYCQHFWSTLTFGGGTKLEIK | ≥ 20 | ≥ 10
mouse-chicken chimeric antibody #3 (antibody, mouse IgG1, V domains shown, also called anti-CAPRIN-1 mouse-chicken chimeric antibody #3) VH: AVTLDESGGGLQTPGGALSLVCKASGFTFSGYDMLWVRQAPGKGLEWVAGIGSTGGGTDYGAAVKGRATISRDNGQSTVRLQLNNLRAEDTATYYCAKVAGGCNSGYCRDSPGSIDAWGHGTEVIVS VL: AVTQQPASVSANPGETVKITCSGGGSRNYYGWYQQKSPGSVPVTVIYYDDQRPSNIPSRFSGALSGSTSTLTITGVQADDEAVYFCGSADSNTYEGSFGAGTTLTVL | ≥ 20 | 
mouse-chicken chimeric antibody #2 (antibody, mouse IgG1, V domains shown, also called anti-CAPRIN-1 mouse-chicken chimeric antibody #2) VH: AVTLDESGGGLQTPGGGLSLVCKASGFTFSSFDMGWVRQAPGKGLEFVAQINDAGSRTWYATAVKGRATISRDNGQTTVRLQLNNLRAEDTGTYYCTRGSGYVGAGAIDAWGHGTEVIVS VL: AALTQPSSVSANPGETVKITCSGGSGYYGWYQQQKSPGSAPVTVIYQNDKRPSDIPSRFSGSGSGSTNTLTITGVQAEDEAVYFCGRYDSTDSGIFGAGTTLTVL | ≥ 20 | 
human-chicken chimeric antibody #2 (antibody, human IgG1, kappa, V domains shown) VH: AVTLDESGGGLQTPGGGLSLVCKASGFTFSSFDMGWVRQAPGKGLEFVAQINDAGSRTWYATAVKGRATISRDNGQTTVRLQLNNLRAEDTGTYYCTRGSGYVGAGAIDAWGHGTEVIVSA VL: AALTQPSSVSANPGETVKITCSGGSGYYGWYQQQKSPGSAPVTVIYQNDKRPSDIPSRFSGSGSGSTNTLTITGVQAEDEAVYFCGRYDSTDSGIFGAGTTLTVLT |  | ≥ 10
mouse monoclonal antibody #18 (antibody, V domains shown, Mouse hybridoma antibody; also called anti-CAPRIN-1 mouse monoclonal antibody #18) VH: LQESGAELARPGASVKLSCKASGYTFTSYWMQWVKQRPGQGLEWIGAIYPGDGDTRYTQKFKGKATLTADKSSSTAYMQLSSLASEDSAVYYCARGEYGNYFAYWGQGTTVTVSS VL: TSDASLGERVTITCKASQDINSYLSWFQQKPGKSPKTLIYRANRLVDGVPSRFSGSGSGQDYSLTISSLEYEDMGIYYCLQYDEFPLTFGGGTKLEIKQ | ≥ 20 | ≥ 10
mouse monoclonal antibody #13 (antibody) chain 1: EVQLHQFGAELVKPGASVKISCKASGYTFTDYNMDWVKQSHGKSLEWIGDINPNYDSTSYNQKFKGKATLTVDKSSSTAYMELRSLTSEDTAVYYCARSRSYDYEGFAYWGQGTLVTVSAAKTTPPSVY chain 2: AVLRCSRGLLVIWISDIQLTQSPSSLAVTAGEKVTMSCKSSQSLLWSVNQKNYLSWYQQKQRQPPKLLIYGASIRESWVPDRFTGSGSGTDFTLTISNVHAEDLAVYYCQHNHGSFLPSRSEQVPSWRSNNR | ≥ 20 | ≥ 10
mouse monoclonal antibody #8 (antibody, V domains shown, Mouse hybridoma antibody; also called anti-CAPRIN-1 mouse monoclonal antibody #8) VH: GGGLVKPGGSLKLSCAASGFAFSSYDMSWIRQTPEKRLEWVAYISSGAGSTYYPDTVKGRFTVSRDNAKNTLYLQMSSLKSEDTAMYYCARHFYRFDYWGQGTTVTVSS VL: SIVMTQTPKFLLVSAGDRITITCKASQSVSNDVAWYQQKPGQSPKLLIYYASNRYTGVPDRFTGSGYGTDFTFTISTVQAEDLAVYFCQQDDRFPLTFGAGPS | ≥ 20 | ≥ 10
mouse-chicken chimeric antibody #1 (antibody, mouse IgG1, V domains shown, from CHO-K1 culture supernatant; also called anti-CAPRIN-1 mouse-chicken chimeric antibody #1) VH: AVTLDESGGGLQMSRGGLSLVCKASGFDFSSYQMNWIRQAPGKGLEFVAAINKFGNSTGHGAAVKGRVTISRDNGQSTVRLQLNNLRAEDTAIYFCTKHAYGYCGSGTWCAAGEIDAWGHGTEVIVSS VL: QAASTQPSSVSANPGETVEITCSGGGSYSYGWFQQKSPGSAPVTVIYYNNKRPSDIPSRFSGSKSGSTGTLTITGVQADDEAVYYCGSGDSTDTAVFGAGTTLTVLG | ≥ 20 | 
mouse monoclonal antibody #6 (antibody) chain 1: DAELVKPGASVKISCKASGYTFTDHSIHWVQQKPEQGLEWIGYISPGNGNIKYNEKFKGKATLTADKSSSTAYMQLNSLTSEDSAVYFCKRSLGRGGPYYFDYWGQGTTVTVSS chain 2: DIVLTQAAPSLPVTPGESVSISCRSSKSLLHSNGNTYLYWFLQRPGQSPQLLIYRMSNLASGVPDRFSGSGSGTAFTLRISRVEAEDVGVYYCMQHREYPVTFGSGPN | ≥ 20 | ≥ 10
mouse monoclonal antibody #3 (antibody, V domains shown) VH: GGGLVKPGGSLKLSCAASGFTFSSYGMSWVRQTPEKRLEWVATISSGGSYTYYPDSVKGRFTISRDNAKNTLYLQMSSLRSEDTAMYYCASLASYYFDYWGQGTTLTVSS VL: not shown | ≥ 20 | ≥ 10
